# From US20030003461, “Truncation selex method” (Gilead Sciences, Inc., published 2003)
# Target: T1, VEGF (Homo sapiens, UniProt P15692-4 P15692-4:27-191)
# Experiment: filter; phenotype 3: gains significant affinity when truncated
# Details: tags: recombinant human, R&D Systems; chain copies: 2
# T1 sequence (P15692 other isoform, or with tags, fused parts or gaps): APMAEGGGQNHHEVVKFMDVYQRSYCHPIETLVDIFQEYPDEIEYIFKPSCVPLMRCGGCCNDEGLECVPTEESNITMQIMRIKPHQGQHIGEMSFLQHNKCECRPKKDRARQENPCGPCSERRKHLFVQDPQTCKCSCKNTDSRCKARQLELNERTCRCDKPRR
row,Binder,binding result
1,"VEGF hyb 21b (ssRNA, 2'-F pyrimidines) RNA: GGGAGGACGAUGCGGUACUAGGUGAAUGCCGAUAAUCUUAUCCGUCAGACGACUCGCCCGA",binds
2,"VEGF hyb 4a (ssRNA, 2'-F pyrimidines) RNA: GGGAGGACGAUGCGGAAACGGAACUUCUUGGAUACAUCUGCUCGUCAGACGACUCGCCCGA",binds
3,"VEGF hyb 13b,21a (ssRNA, 2'-F pyrimidines) RNA: GGGAGGACGAUGCGGUGUUGAUCGAGAUUUAAUCUAUUUCCACGUCAGACGACUCGCCCGA",binds

# Target: T1, VEGF
# Experiment: filter; phenotype 2: somewhat affected
# Details: tags: recombinant human, R&D Systems; chain copies: 2
row,Binder,binding result
1,"GGGAGGAAACGGAAGAAUUGGAAAACACCCGUCCAGACGACUCGCCCGA (ssRNA, 2'-F pyrimidines) [T2-7]",binds
2,"T2-20 (ssRNA, 2'-F pyrimidines) RNA: GGGAGGGGAGGAAACGGAAGAAUUGGAAAACACCCGUCAGCACAGACGACUCGCCCGA",binds
3,"T2-17 (ssRNA, 2'-F pyrimidines) RNA: GGGAGAGGAGAAUCAGUGAAUGCUUAUAAAUCUCGUGUCACACAGACGACUCGCCCGA",binds
4,"T2-11 (ssRNA, 2'-F pyrimidines) RNA: GGGAGGGACACUGGUUCCGAAGUAUUGUCUUUGUCCUCACAGCAGACGACUCGCCCGA",binds
5,"VEGF hyb 4b (ssRNA, 2'-F pyrimidines) RNA: GGGAGGACGAUGCGGAGACUUUGGAAGAAUUGAAUUUGUCCGUGUCAGACGACUCGCCCGA",binds
6,"VEGF hyb 15b,19 (ssRNA, 2'-F pyrimidines) RNA: GGGAGGACGAUGCGGACAUGUAGGAAGAAUUGGAAGAUGCCGCGUCAGACGACUCGCCCGA",binds
7,"VEGF hyb 3a (VT30.1) (ssRNA, 2'-F pyrimidines) RNA: GGGAGGACGAUGCGGAACUAGUGAAUGCUUAUACGACCGUGUUGUCAGACGACUCGCCCGA",binds
8,"VEGF hyb 24 (ssRNA, 2'-F pyrimidines) RNA: GGGAGGACGAUGCGGAAGGCGACUUGUAUGUGAUUCAGUAUUGGUCAGACGACUCGCCCGA",binds
9,"VT30.3 (ssRNA, 2'-F pyrimidines) RNA: GGGAGGACGAUGCGGAGAAUCAGUGAAUGCUUAUAAAUCUCGUGUCAGACGACUCGCCCGA",binds

# Target: MS2 coat protein (MS2 CP) (bacteriophage MS2, UniProt P03612 P03612:2-130, V75E;A81G)
# Experiment: filter; binds better than natural MS2 site
# Details: chain copies: 2 (dimer, stated); hairpin
row,Binder,binding result
1,pheT isolate 2 (ssRNA) RNA: GGGAAAGCCCACGCCCUUCGCUUCAGUACCGUCGAGCAGCACCAGCGUUUCGCCACCGAACUGCCGCACC,binds
2,o356 isolate 3 (ssRNA) RNA: GGGAAAGCCCACGCCAAUGUUCCACCAGCAGGGGAAAUGAUGUUGUUCUGGCUACCGAACUGCCGCACC,binds
3,ygiI isolate 4 (ssRNA) RNA: GGGAAAGCCCACGCCUAGGAGAGCGUUAACAACAGCAUCAGCGUUGAAGUGACGGAGGUACCGAACUGCCGCACC,binds
4,mreD isolate 5 (ssRNA) RNA: GGGAAAGCCCACGCCUGAUUUGCAGCAACAGCGCAAUGAGGAAAGAGAGCCAGAUUACCCACCGAACUGCCGCACC,binds
5,isolate 7 (ssRNA) RNA: GGGAAAGCCCACGCCAGUAAUUACGCCAUGAACACAGGCAUAAAGAAGUACAUAUGGUACCGAACUGCCGCACC,binds

# Target: T1, VEGF
# Experiment: filter; phenotype 4: unaffected
# Details: tags: recombinant human, R&D Systems; chain copies: 2
row,Binder,binding result
1,"T2-18 (ssRNA, 2'-F pyrimidines) RNA: GGGAGUGGAAAUCAGUGAAUGCUUAUAGUUUCUCGCGUCACACAGACGACUCGCCCGA",binds
2,"T2-23 (ssRNA, 2'-F pyrimidines) RNA: GGGAGGGACUGAAUGAAUGUUGACGGUUACGCUUUCCCCACAGACGACUCGCCCGA",binds
3,"VEGF hyb 2a,23 (VT30.3) (ssRNA, 2'-F pyrimidines) RNA: GGGAGGACGAUGCGGAGAAUCAGUGAAUGCUUAUAAAUCUCGUGUCAGACGACUCGCCCGA",binds
4,"VEGF hyb 1 (ssRNA, 2'-F pyrimidines) RNA: GGGAGGACGAUGCGGAGCUAGGUGAAUGCCGAUAUUCUCUUCCGUCAGACGACUCGCCCGA",binds
5,"VEGF hyb 6 (ssRNA, 2'-F pyrimidines) RNA: GGGAGGACGAUGCGGAUUUGGAUGCAUGUCAAGGCGUUUUGCCCUCAGACGACUCGCCCGA",binds
6,"VT30.9 (ssRNA, 2'-F pyrimidines) RNA: GGGAGGACGAUGCGGUCAACCGGUUGAAUAUUUGGUCGCUGACCUCAGACGACUCGCCCGA",binds

# Target: VEGF (VEGF165?) (Homo sapiens, UniProt P15692-4 P15692-4:27-191)
# Sequence (P15692 other isoform, or with tags, fused parts or gaps): as the sequence (P15692 other isoform, or with tags, fused parts or gaps) above
# Experiment: filter; phenotype 5: non-binding with or without 3' fixed sequence
# Details: tags: R&D Systems; chain copies: 2; label: 32P body
row,Binder,binding result
1,"T1-1 (ssRNA, 2'-F pyrimidines) RNA: GGGAGCGGACGACCUGGUGAAUGCCAAUAUACUUUUCGCGUCACAGACGACUCGCCCGA",no binding
2,"T1-15 (ssRNA, 2'-F pyrimidines) RNA: GGGAGGGGGGGGGAGUGAAUGCUUAUUAGAUCUGCCGUCACAGACGACUCGCCCGA",no binding
3,"T1-5 (ssRNA, 2'-F pyrimidines) RNA: GGGAGGGUGAAUGCCAACGAUUUUAUCGCCUAUCGUCACAGACGACUCGCCCGA",no binding
4,"T1-13 (ssRNA, 2'-F pyrimidines) RNA: GGGAGCAGACGACUCGCCCGACAGACCACUCGCCCGACAGACGACUCGCCCGA",no binding
5,"GGGAGCAGACGACUCGCCCGAGGAGGAGGGGGGCAGACGACUCGCCCGA (ssRNA, 2'-F pyrimidines) [T1-3]",no binding
6,"T1-2 (ssRNA, 2'-F pyrimidines) RNA: GGGAGACCACCAGACGACUCGCCCGAACGCUUAUCCUCUGGUCAGACGACUCGCCCGA",no binding
7,"T1-4 (ssRNA, 2'-F pyrimidines) RNA: GGGAGGCAGACGACUCGCCCGAGGAUACACAUCGUGUGGUCAGACGACUCGCCCGA",no binding
8,"GGGAGGUCUCCAGACGACUCGCCCGA (ssRNA, 2'-F pyrimidines) [T1-16]",no binding
